Laboratory results taken from patent US20150197568A1 (AstraZeneca / MedImmune, published 2015).

T1: Murine IL-6 (murine, UniProt P08505 25-211)
T1 construct: also called mouse IL-6
T1 sequence (looked up): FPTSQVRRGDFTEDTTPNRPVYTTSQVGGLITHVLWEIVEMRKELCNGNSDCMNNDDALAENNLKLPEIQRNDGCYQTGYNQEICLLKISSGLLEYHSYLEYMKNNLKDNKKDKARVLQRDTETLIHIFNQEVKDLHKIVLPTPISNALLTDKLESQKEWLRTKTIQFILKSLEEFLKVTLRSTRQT

T2: Rat IL-6 (rat, UniProt P20607 25-211)
T2 sequence (looked up): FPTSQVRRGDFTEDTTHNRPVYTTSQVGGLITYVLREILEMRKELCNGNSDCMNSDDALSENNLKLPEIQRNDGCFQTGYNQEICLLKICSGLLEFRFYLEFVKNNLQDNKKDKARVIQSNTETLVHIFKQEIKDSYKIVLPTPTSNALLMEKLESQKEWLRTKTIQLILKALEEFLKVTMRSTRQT

T3: Human IL-11 (human, UniProt P20809 22-199, limits assumed)
T3 sequence (looked up): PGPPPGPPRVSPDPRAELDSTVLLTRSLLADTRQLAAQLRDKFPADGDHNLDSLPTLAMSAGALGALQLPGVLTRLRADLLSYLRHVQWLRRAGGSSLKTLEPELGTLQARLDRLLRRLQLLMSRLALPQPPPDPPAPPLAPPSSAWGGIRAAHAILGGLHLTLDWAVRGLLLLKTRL

T4: Human CNTF (human, UniProt P26441 2-200)
T4 construct: also called ciliary neurotrophic factor
T4 sequence (looked up): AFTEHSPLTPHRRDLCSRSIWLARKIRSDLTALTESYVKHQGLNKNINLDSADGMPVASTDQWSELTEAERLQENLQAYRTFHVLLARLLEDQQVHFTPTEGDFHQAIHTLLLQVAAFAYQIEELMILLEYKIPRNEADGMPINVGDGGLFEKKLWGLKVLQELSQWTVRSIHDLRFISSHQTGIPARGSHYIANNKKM

T5: Human Oncostatin M (human, UniProt P13725 26-221)
T5 construct: also called OsM
T5 sequence (looked up): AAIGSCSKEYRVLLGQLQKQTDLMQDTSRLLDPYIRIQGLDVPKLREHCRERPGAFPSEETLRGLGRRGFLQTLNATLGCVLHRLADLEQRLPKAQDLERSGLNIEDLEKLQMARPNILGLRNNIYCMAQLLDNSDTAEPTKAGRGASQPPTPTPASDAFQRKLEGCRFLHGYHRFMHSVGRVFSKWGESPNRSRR

B1: CAN022D10 IgG (antibody, V domains shown)
VH: EVQLVQSGGGLIQPGGSLRLSCAASGFTISSNYMIWVRQAPGKGLEWVSDLYYYAGDTYYADSVKGRFTMSRDISKNTVYLQMNSLRAEDTGVYYCARWADDHYYYIDVWGRGTLVTVSS
VL: DIVMTQSPSTLSASVGDRVTITCRASQGISSWLAWYQQKPGRAPKVLIYKASTLESGVPSRFSGSGSGTDFTLTISSLQPEDFATYYCQQSYSTPWTFGQGTKLEIKR
notes: Biotinylated in the HTRF antibody-ligand assay; also called CAN22D10; parent IgG

Tests used:
[1] = target: Mature human IL-6 (human, UniProt P05231 30-212); test: cell-based or functional assay
[2] = target: T6, HIS FLAG tagged human IL-6 (human, UniProt P05231 30-212); test: HTRF receptor-ligand competition; HIS FLAG human IL-6 vs biotinylated sIL-6R
T6 construct: In house; also called HIS FLAG IL-6; HIS/FLAG IL-6
Method: Unique scFvs were expressed again in bacteria and purified by affinity chromatography (as described by Bannister et al. Purified IgG samples of these clones were also prepared as described in section 1.3. The potencies of these samples were determined by competing a dilution series of the purified preparation against biotinylated sIL-6R for binding to HIS FLAG tagged human IL-6 (in house E. coli derived).
Purified scFv and IgG from positive clones identified from screening were tested in a HTRF® assay for inhibition of binding of HIS FLAG tagged human IL-6 to biotinylated IL-6R. 8 nM biotinylated human IL-6R was pre-incubated for 30 minutes at room temperature in the dark, with 8 nM streptavidin XL^{ent!}™. All dilutions were done in phosphate buffered saline (PBS) containing 0.4 M potassium fluoride and 0.1% BSA (assay buffer).

[3] = target: T1, Murine IL-6; test: DELFIA epitope competition; protein titrated against biotinylated HIS FLAG IL-6 on immobilised CAN022D10 IgG
Method: (§1) Titrations of IL-6 species including cynomolgus (in house E. Coli derived), human HIS FLAG IL-6 (in house HEK-EBNA derived), rat and murine IL-6 (both R & D Systems) were tested in each assay to establish the species cross-reactivity of the antibodies. Details of the protocol are provided in the Materials and Methods section.
(§2) Purified IgG were adsorbed onto 96-well Maxisorp microtitre plates (Nunc) in PBS at a concentration which gave a significant signal when biotinylated human IL-6 was added at approximately its estimated Kd for that particular IgG. Excess IgG was washed away with PBS-Tween (0.1% v/v) and the wells were blocked with PBS-Marvel (3% w/v) for 1 h. […] These mixtures were then transferred onto the blocked IgG and allowed to equilibrate for 1.5 h. Unbound antigen was removed by washing with PBS-Tween (0.1% v/v), while the remaining biotinylated human IL-6 was detected by streptavidin-Europium3+ conjugate (DELFIA® detection, PerkinElmer). Time-resolved fluorescence was measured at 620 nm on an EnVision plate reader (PerkinElmer). Fluorescence data was converted to % specific binding (100% was determined from control wells containing biotinylated human IL-6 but no competitor, 0% was from wells containing biotinylated human IL-6 and a 100-fold excess of unbiotinylated human IL-6). Resultant data were analysed using Prism curve fitting software (Graphpad) to determine IC50 values according to Equation 3.

[4] = target: T2, Rat IL-6; test: as above
Method: as §1, §2

[5] = target: T3, Human IL-11; test: as above
Method: as §1, §2

[6] = target: T4, Human CNTF; test: as above
Method: as §1, §2

[7] = target: Human LIF (human, UniProt P15018 23-202); test: as above
Method: as §1, §2

[8] = target: T5, Human Oncostatin M; test: as above
Method: as §1, §2

[9] = target: B1; test: as above
Method: as §1, §2

Chain of Human LIF (P15018 23-202 limits assumed): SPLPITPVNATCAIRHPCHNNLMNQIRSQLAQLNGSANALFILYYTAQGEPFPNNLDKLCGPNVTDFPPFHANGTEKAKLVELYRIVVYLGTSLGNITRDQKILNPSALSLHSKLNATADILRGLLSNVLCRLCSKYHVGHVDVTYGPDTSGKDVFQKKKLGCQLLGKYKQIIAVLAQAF

| IC50, IL-6 induced TF-1 cell proliferation [1] [µM] | IC50, endogenous IL-6 induced VEGF release from human synovial fibroblasts [1] [µM] | IC50 [2] [µM] | binding result [3] | binding result [4] | binding result [5] | binding result [6] | binding result [7] | binding result [8] | IC50 [9] [µM] | Binder |
| --- | --- | --- | --- | --- | --- | --- | --- | --- | --- | --- |
| 0.093 | 0.045 | 0.00031 | no binding | no binding | no binding | no binding | no binding | no binding |  | B1 |
|  |  |  |  |  |  |  |  |  | ~0.1 | Cynomolgus IL-6 (ligand, UniProt P79341 28-212, looked up, mature; also called cyno IL-6; macaque IL-6) APVLPGEDSKDVAAPHSQPLTSSERIDKHIRYILDGISALRKETCNRSNMCESSKEALAENNLNLPKMAEKDGCFQSGFNEDTCLVKIITGLLEFEVYLEYLQNRFESSEEQARAVQMSTKVLIQFLQKKAKNLDAITTPEPTTNASLLTKLQAQNQWLQDMTTHLILRSFKEFLQSSLRALRQM |
